Article PMC9522604
Where two headings read alike, the source gives them in different places.

T1: Cas12c2 (UniProt PDB:7V94_1 1-1232)
T1 sequence: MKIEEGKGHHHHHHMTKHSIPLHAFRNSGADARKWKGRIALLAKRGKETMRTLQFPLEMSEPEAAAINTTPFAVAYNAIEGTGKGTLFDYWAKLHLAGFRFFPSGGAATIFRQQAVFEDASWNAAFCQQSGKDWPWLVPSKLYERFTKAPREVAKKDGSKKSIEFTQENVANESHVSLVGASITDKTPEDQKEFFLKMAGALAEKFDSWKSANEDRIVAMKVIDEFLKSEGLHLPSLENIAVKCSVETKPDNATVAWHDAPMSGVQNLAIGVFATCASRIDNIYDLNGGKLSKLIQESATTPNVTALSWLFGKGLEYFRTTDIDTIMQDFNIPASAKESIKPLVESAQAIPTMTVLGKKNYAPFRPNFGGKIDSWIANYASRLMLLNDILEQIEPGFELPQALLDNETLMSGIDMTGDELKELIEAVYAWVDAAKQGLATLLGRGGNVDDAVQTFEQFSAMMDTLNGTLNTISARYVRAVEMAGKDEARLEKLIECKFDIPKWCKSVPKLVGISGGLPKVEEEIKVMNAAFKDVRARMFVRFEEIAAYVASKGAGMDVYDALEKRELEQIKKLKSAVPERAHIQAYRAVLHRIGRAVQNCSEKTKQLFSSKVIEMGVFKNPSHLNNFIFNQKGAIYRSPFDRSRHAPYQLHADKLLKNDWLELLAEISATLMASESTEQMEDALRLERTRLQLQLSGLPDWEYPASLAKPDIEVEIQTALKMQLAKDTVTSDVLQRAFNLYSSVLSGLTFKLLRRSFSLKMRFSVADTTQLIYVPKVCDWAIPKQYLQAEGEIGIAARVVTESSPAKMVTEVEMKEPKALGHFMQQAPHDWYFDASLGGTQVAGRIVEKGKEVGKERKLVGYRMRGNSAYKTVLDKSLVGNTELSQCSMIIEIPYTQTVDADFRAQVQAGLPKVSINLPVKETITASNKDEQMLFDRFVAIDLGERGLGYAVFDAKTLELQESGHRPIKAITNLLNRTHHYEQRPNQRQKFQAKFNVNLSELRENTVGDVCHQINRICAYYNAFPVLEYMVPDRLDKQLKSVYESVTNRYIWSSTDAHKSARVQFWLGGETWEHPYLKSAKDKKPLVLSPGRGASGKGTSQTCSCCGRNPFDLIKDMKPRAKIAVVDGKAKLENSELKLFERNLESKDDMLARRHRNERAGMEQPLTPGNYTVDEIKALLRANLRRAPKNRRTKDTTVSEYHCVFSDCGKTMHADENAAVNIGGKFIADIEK

B1: Cas12c2 sgRNA (112 nt) (structured_RNA)
RNA: GGAUACCACCCGUGCAUUUCUGGAUCAAUGAUCCGUACCUCAAUGUCCGGGCGCGCAGCUAGAGCGACCUGAAGAAAUUCAGGUUGGGUUUGAGGGGAAAUUAGGUGCGCUU
B2: sgRNA + 33-bp target DNA, TG PAM (guide/target strand/non-target strand) (mixed)
RNA: B1 RNA
DNA 1: AGGTTGCCAAGCGCACCTAATTTCCCATTTTAG
DNA 2: CTAAAATGGGAAATTAGGTGCGCTTGGCAACCT

Columns and labels:
Cas12c2 [1] = molecular target: T1, Cas12c2; assay: cryo-EM
Cas12c2 [2] = molecular target: T1, Cas12c2; assay: cryo-EM; remark: listed apart in the source

Binder | binding result (Cas12c2 [1]) | binding result (Cas12c2 [2])
B1 | binds | –
B2 | – | binds
